Measurements published in PMC4368477.

Biological target: HA head of H1N1 A/Solomon Islands/3/2006 (Influenza A virus, A/Solomon Islands/3/2006 (H1N1))
Assay: BLI

## CH65 Fab
  koff: 0.013 s⁻¹
  kon: 42900 M⁻¹ s⁻¹
